Laboratory results as given in patent US20150301024.

B1: recombinant human caspase 7 (protein)
chain: AKPDRSSFVPSLFSKKKKNVTMRSIKTTRDRVPTYQYNMNFEKLGKCIIINNKNFDKVTGMGVRNGTDKDAEALFKCFRSLGFDVIVYNDCSCAKMQDLLKKASEEDHTNAACFACILLSHGEENVIYGKDGVTPIKDLTAHFRGDRCKTLLEKPKLFFIQACRGTELDDGIQADSGPINDTDANPRYKIPVEADFLFAYSTVPGYYSWRSPGRGSWFVQALCSILEEHGKDLEIMQILTRVNDRVARHFESQSDDPHFHEKKQIPCVVSMLTKELYFSQ
B2: recombinant human caspase 3 (protein)
chain: SGISLDNSYKMDYPEMGLCIIINNKNFHKSTGMTSRSGTDVDAANLRETFRNLKYEVRNKNDLTREEIVELMRDVSKEDHSKRSSFVCVLLSHGEEGIIFGTNGPVDLKKITNFFRGDRCRSLTGKPKLFIIQACRGTELDCGIETDSGVDDDMACHKIPVEADFLYAYSTAPGYYSWRNSKDGSWFIQSLCAMLKQYADKLEFMHILTRVNRKVATEFESFSFDATFHAKKQIPCIVSMLTKELYFYH

Molecular target: hXkr8-GFP (wild-type human Xkr8 fused to GFP at its C-terminus)

Protein	cleavage of the GFP-fusion protein, Western blot with anti-GFP
B1	caspase 3 and caspase 7 cleaved the wild-type but not 2DA mutant hXkr8
B2	caspase 3 and caspase 7 cleaved the wild-type but not 2DA mutant hXkr8
